The numbers were not newly measured in PMC3050111, which cites them from elsewhere.

pKd: −log10 of the molar value. Read-outs that look alike come from different tables or passages of the source.

Series [1] has as its target integrin αVβ3 (Homo sapiens) (UniProt P06756).
Series [2] shares this target. This is another data set of the same source.
For series [3] the target is unchanged. The source holds these as a separate data set.

For Tat (from UniProt P04326), the negative-log Kd (pKd) (commonly the negative decadic logarithm of the Kd, by convention in mol/L) in series [1] was 7.49. Consider fibrinogen (from UniProt P02671), for which, in series [2], the pKd was 7.57. Take vitronectin (from UniProt P04004): the negative logarithm of the Kd (pKd) in series [3] was 7.19.
